Patent publication US20250228955A1

Molecular target: recombinant HIV-1 trimeric spike (BG505 SOSIP.664) (HIV-1)

B1: ODIN-1 (VHH-72.18 with UL-CDR3 from NC-Cow1 bovine IgG in FR2 loop) (bispecific antibody, V domains shown)
VH: MGWFRQTNKKECPEDYTYNPRCPQQYGWSDCDCMGDRFGGYCRQDGCSNYIHRSTREFVATISWSGGSTYYTDSVKGRFTISRDNAKNTVYLQMNSLKPDDTAVYYCAAAGLGTVVSEWDYDYDYWGQGTQVTVSS
Work on B1 yielded a Kd of 30 nM.
